Biological target: F-actin from rabbit skeletal muscle (rabbit, UniProt P68135 1-377)
Assay: co-sedimentation

Kd: 10.7 µM
B1: mouse short form C0-C2, C-terminal tagged (mSF1), lacking the 8 amino acid NTE (domain or fragment)
chain: PEPGKKPVSAFNKKPRSAEVTAGSAAVFEAETERSGVMVRWQRDGSDITANDKYGLAAEGKRHTLTVRDASPDDQGSYAVIAGSSKVKFDLKVTEPAPPEKAESEVAPGAPEEVPAPATELEESVSSPEGSVSVTQDGSAAEHQGAPDDPIGLFLMRPQDGEVTVGGSIVFSARVAGASLLKPPVVKWFKGKWVDLSSKVGQHLQLHDSYDRASKVYLFELHITDAQTTSAGGYRCEVSTKDKFDSCNFNLTVHEAIGSGDLDLRSAFRRTSLAGAGRRTSDSHEDAGTPDFSSLLKKRDSFRRDSKLEAPAEEDVWEILRQAPPSEYERIAFQHGVEACHRPLKRLKGMKQDEKKSTAFQKKLEPAYQVNKGHKIRLTVELADPDAEVKWLKNGQEIQMSGSKYIFESVGAKRTLTISQCSLADDAAYQCVVGGEKCSTELFVKEP

From publication PMC6366860 (Journal of molecular and cellular cardiology, 2018)
